Experimental data published in PMC7116205.

syntaxin 1A 1-288 (rat), sequence (P32851 whole entry T251I): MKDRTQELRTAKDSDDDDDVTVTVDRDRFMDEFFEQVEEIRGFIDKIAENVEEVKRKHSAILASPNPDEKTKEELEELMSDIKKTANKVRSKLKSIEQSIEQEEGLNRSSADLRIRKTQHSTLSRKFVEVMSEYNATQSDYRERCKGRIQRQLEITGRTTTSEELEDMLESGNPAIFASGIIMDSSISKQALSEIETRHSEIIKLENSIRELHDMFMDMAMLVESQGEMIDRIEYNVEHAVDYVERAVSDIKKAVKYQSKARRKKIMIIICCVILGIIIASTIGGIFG
VAMP2 (1-116) (mouse), sequence (P63044 other isoform, or with tags, fused parts or gaps): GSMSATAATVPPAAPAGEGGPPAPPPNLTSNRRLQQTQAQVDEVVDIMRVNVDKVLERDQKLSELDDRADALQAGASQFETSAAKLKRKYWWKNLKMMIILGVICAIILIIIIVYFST

share of the cross-links that stay SDS sensitive (not in SDS-resistant cis v/t-SNARE complexes) after Ca2+ (VAMP2 (1-116) (mouse)) | share of the cross-links that are SDS sensitive (not in SDS-resistant cis v/t-SNARE complexes) after Ca2+, unboiled samples (syntaxin 1A 1-288 (rat)) | Substance
74% | – | CpxII A40BPA (natural protein)
– | 14% | CpxII H52BPA (natural protein)
